# According to paper PMC12828769:
# Target: Human Angiotensin-converting enzyme 2 (ACE2) (human)
# Assay: MST; Monolith NT.115, standard glass capillaries; ACE2 labelled with NT-647 (NHS ester); ACE2 serially diluted across 16 tubes in 10 mM phosphate buffer pH 7.4, mixed 1:1 with RBDs or RBDdopa's, 15 min at RT; 40-60% MST power; apparent KD
substance,measurement,value
Native SARS-CoV-2 RBD (Arg319-Phe541) without any mutation (domain or fragment; other documents disagree on this pair),Kd,5.4 µM
